Measured values taken from patent US20240376188A1 (UNIVERSITY OF NORTH CAROLINA AT CHAPEL HILL, published 2024).
Ends that are not written are not given here.

T1: acetylated peptide at residue K280 (276QIIN-K-Ac-KLDLSNVQSC) (human)
T1 construct: Coated at 1 ug/ml on 96-well plates; also called acetylated tau peptide
T1 peptide: QIINK(Ac)KLDLSNVQSC


Molecular target: T1, acetylated peptide at residue K280 …
Experiment: peptide ELISA, peptide coated at 1 ug/ml, hybridoma supernatant diluted 1:10 to 1:2,500
Method: FIG. 13 includes an ELISA assay showing two K280 clones, 19B6 and 17G8, preferentially detect acetylated vs, non-acetylated tau peptides. Standard peptide ELISAs were performed with 1 μg/ml acetylated peptides at residue K280 (276QIIN-K-Ac-[…] (SEQ ID NO:17)) vs, non-acetylated peptides (276[…] (SEQ ID NO: 16)) and used to coat 96-well plates followed by washing with coating buffer (Phosphate Buffered Saline, pH 7.4) and incubated with serial dilutions of hybridoma supernatants (diluted from 1:10 to 1:2,500). Monoclonal antibodies were […] Horseradish peroxidase (HRP)-labeled secondary antibodies and colorimetric ELISAs were performed using a BMG/BioTek® multiplate reader at a standard absorbance setting of 450 nm with auto-mixing and blanking.

| binding result | Binder |
| --- | --- |
| binds | 19B6 (antibody, V domains shown, Used as hybridoma supernatant in the peptide ELISA; also called Ac-K280 clone 19B6) VH: EVQLQQSGAEFVRPGASVKLSCTVSGLNIEDDYIQWLKQRPEQGLEWIGWIDPENGDPKYASKFQGKATLTADTSSKIAYLHLSSLTSEDTAVYYCATRGLWGQGTTLTVSS VL: QIVLTQSPAIMSASLGERVTMTCTASSSVSSSYFHWYQQKPGSSPKLWIYSTSNLASGVPVRFSGSGSGTSYSLTISSMEAEDAATYYCHQYHRSPLTFGAGTKLELK |
| binds | 17G8 (antibody, V domains shown, Used as hybridoma supernatant in the peptide ELISA; also called Ac-K280 clone 17G8) VH: EVQLQQSGAEFVRPGASVKLSCTVSGLNIEDDYIQWLKQRPEQGLEWIGWIDPENGDPKYASKFQGKATLTADTSSKIAYLHLSSLTSEDTAVYYCATRGLWGQGTTLTVSS VL: QIVLTQSPAIMSASLGERVTMTCTASSSVSSSYFHWYQQKPGSSPKLWIYSTSNLASGVPVRFSGSGSGTSYSLTISSMEAEDAATYYCHQYHRSPLTFGAGTKLELK |
